Data on two molecules can be found in US20160031977A1 (BETH ISRAEL DEACONESS MEDICAL CENTER, published 2016).

For this test, the target named is T1, pT231-tau peptide locked in trans (pT231-Ala).
T1 construct: also called trans pT231-tau peptide
T1 peptide: KVAVVR[pT]APKSPS
Briefly: ELISA, hybridoma culture supernatant on peptide. On the procedure:
To develop cis and trans pT231-tau mouse mAbs, 74% cis pT231-Pip tau peptide as described previously in Nakamura et al., Cell 149: 232-244, 2012 was used to immunize mice. The procedure produced 480 hybridoma clones that were then characterized. […] The nucleic acid and protein sequences including the CDRs of the mAb heavy chain and light chain are shown below. […] The DNA sequences of the heavy and light chains of the mAbs were determined using 5′ RACE RT-PCR techniques, as described in Bradbury et al., Neurobiol Aging 16:465-475, 1995. […] Predicted protein sequences are highly conserved in Framework regions, with clear differences in complementary determining region (CDR) 1-3 (FIGS. 8 and 9).
A general note: ELISA stands for enzyme-linked immunosorbent assay.

Square brackets hold non-standard residues; d marks the D form. Ends that are not written are not given here. pT = C[C@@H](OP(=O)(O)O)[C@H](N)C(=O)O

B1: Cis mAb-#113 (antibody, V domains shown)
VH: QVQLQQPGAELVKPGASVKMSCKASGYTFTSYWIHWVKQRPGQGLEWIGVIDPSDSYTRYNQKFKGKATLTVDTSSSTAYMQLSSLTSEDSAVYYCTTWEVDYWGQGTTLTVSS
VL: DVVMTQTPLSLPVSLGDQASISCRSSQSLVHSDGNTYLHWYLQKPGQSPKLLIYKVSNRFSGVPDRFSGSGSGTDFTLKISRLEAEDLGVYFCSQSTHVPWTFGGGTKLEIKR
notes: Mouse monoclonal antibody from a hybridoma, screened as culture supernatant; also called cis pT231-tau mouse mAb
Regarding B1, the binding result is given as “no binding”.

B2: Cis mAb-#74 (antibody, V domains shown)
VH: DVQLQESGPGLVKPSQSLSLTCSVTGYSITSGYYWNWIRQFPGNKLEWMGYISYDGSNNYNPSLKNRISITRDTSKNQFFLKLNSVTTEDTATYYCAGLRRDAYWGQGTLVTVSA
VL: DIQMTQTTSSLSASLGDRVTISCRASQDISNYLNWYQQKPDGTVKLLIYYTSRLHSGVPSRFSGSGSGTDYSLTISNLEQEDIATYFCQQGNTLPWTFGGGTKLEIKR
notes: Mouse monoclonal antibody from a hybridoma, screened as culture supernatant; also called cis hybridoma clone #74; cis pT231-tau mouse mAb
Regarding B2, the binding result is listed as “no binding”.
